Paper PMC4685008
Blank lines part the entries; values can stand above or below the substance they belong to.

What was measured:
[1] = biological target: mGluR5 (endogenous) (UniProt Q3UVX5); experiment: co-IP with myc antibody, mGluR5 blot
[2] = biological target: mGluR5 (endogenous) (UniProt Q3UVX5); experiment: co-IP of myc-Homer; settings: reference: H2WT replacement; sites S117,S216

binding against the reference ([1]; reference: H1mycWT, sites S117): stronger
Substance: Homer1 (H1, long form) (from UniProt Q9Z2Y3) H1mycS117A

binding against the reference [2]: stronger
Substance: Homer2 (H2) (from UniProt Q9QWW1) H2S117/216AA replacement

binding against the reference ([1]; reference: H2mycWT, sites S117,S216): stronger
Substance: Homer2 (H2) (from UniProt Q9QWW1) H2mycS117/216AA
